We go through 23 sequences from the Immune Epitope Database (IEDB).

Holding throughout (test): IEDB peptide-MHC binding, cellular MHC/competitive/fluorescence; ≥ and ≤ were set here for values at or beyond the usual limits of such assays
The target of assay [1] is HLA-A*02:06.
Assay [2] concerns the target HLA-A*02:02.
Assay [3] deals with HLA-A*68:02.
In assay [4] the target is HLA-A*02:03.
Assay [5] deals with HLA-A*02:01.
Where [6] appears, read: source organism: Vaccinia virus WR.
[7] abbreviates: source organism: Influenza A virus.
[8] abbreviates: source organism: Mammarenavirus choriomeningitidis.

pIC50: −log10 of the molar value.

As to DVEKRILNT, the negative logarithm of the IC50 (pIC50) is ≤ 4.15 in assay [1] (setting [6]); 5.23 in assay [2] (setting [6]); ≤ 4.15 in assay [3] (setting [6]); 5.17 in assay [4] (setting [6]); 5.03 in assay [5] (setting [6]).
For DVGCLLTDT, the pIC50 in assay [1] (setting [6]) was ≤ 4.15; in assay [2] (setting [6]), ≤ 4.15; in assay [3] (setting [6]), ≤ 4.15; in assay [4] (setting [6]), 4.18; in assay [5] (setting [6]) it was ≤ 4.15.
On to DVGCLLTDTI, for which the negative-log IC50 (pIC50) in assay [1] (setting [6]) is 5.00; in assay [2] (setting [6]) it was 4.97; in assay [3] (setting [6]) it was 4.56; in assay [4] (setting [6]) it was 4.81; in assay [5] (setting [6]), 5.17.
The like results for DVKVLAARL were, in that order, 5.00, 5.21, 5.10, 4.97 and 4.92.
The matching figures for DVNEEYTEAA: 4.22, 4.33, 4.80, 4.54 and 4.37.
On to EAKTHFSTT, for which the pIC50 is 4.26 in assay [1] (setting [6]); 4.44 in assay [2] (setting [6]); 4.88 in assay [3] (setting [6]); 4.60 in assay [4] (setting [6]); 4.56 in assay [5] (setting [6]).
The matching figures for EIDVSEVKT: ≤ 4.15, 4.34, 4.70, ≤ 4.15 and ≤ 4.15.
As to EIITGNKVKT, the negative-log IC50 (pIC50) in assay [1] (setting [6]), in assay [2] (setting [6]), in assay [3] (setting [6]), in assay [4] (setting [6]) and in assay [5] (setting [6]) was ≤ 4.15 in each case.
For the sequence ELEKCTSEI, the pIC50 in assay [1] (setting [6]) was 4.24; in assay [2] (setting [6]), 4.68; in assay [3] (setting [6]), 4.61; in assay [4] (setting [6]), 4.25; in assay [5] (setting [6]), 4.61.
Regarding ELTNKKYRCM, the pIC50 in assay [1] (setting [6]) was ≤ 4.15; in assay [2] (setting [6]), ≤ 4.15; in assay [3] (setting [6]) it was 4.86; in assay [4] (setting [6]), ≤ 4.15; in assay [5] (setting [6]), ≤ 4.15.
With ELTSNCTRT, the negative-log IC50 (pIC50) in assay [1] (setting [6]) was 4.33; in assay [2] (setting [6]), ≤ 4.15; in assay [3] (setting [6]) it was ≤ 4.15; in assay [4] (setting [6]), ≤ 4.15; in assay [5] (setting [6]), 4.31.
For ELVMDKNHAI, the negative logarithm of the IC50 (pIC50) in assay [1] (setting [6]) is ≤ 4.15; in assay [2] (setting [6]), 4.85; in assay [3] (setting [6]), 4.71; in assay [4] (setting [6]), ≤ 4.15; in assay [5] (setting [6]) it was ≤ 4.15.
For the sequence EMQLKIDKLT, the pIC50 is ≤ 4.15 in assay [1] (setting [6]); 5.02 in assay [2] (setting [6]); 4.37 in assay [3] (setting [6]); 5.17 in assay [4] (setting [6]); 4.25 in assay [5] (setting [6]).
The like results for FASADNHPKM were, in that order, ≤ 4.15, ≤ 4.15, ≤ 4.15, 4.32 and ≤ 4.15.
In the case of GANGSTAEQL, the negative-log IC50 (pIC50) was 4.26 in assay [1] (setting [6]); 5.14 in assay [2] (setting [6]); 4.87 in assay [3] (setting [6]); 4.34 in assay [4] (setting [6]); 4.17 in assay [5] (setting [6]).
The matching figures for GIDTSNNIA: 4.60, 4.30, ≤ 4.15, ≤ 4.15 and 4.76.
With GLQSSDDFA, the negative-log IC50 (pIC50) in assay [1] (setting [7]) was ≤ 4.15; in assay [2] (setting [7]) it was 4.94; in assay [3] (setting [7]) it was ≤ 4.15; in assay [4] (setting [7]) it was 4.73; in assay [5] (setting [7]) it was 5.10.
Consider GTKGKLYIAL, for which the pIC50 in assay [1] (setting [6]) is 4.43; in assay [2] (setting [6]), 5.04; in assay [3] (setting [6]), 5.12; in assay [4] (setting [6]) it was 5.11; in assay [5] (setting [6]) it was 4.78.
Take GTMPSLTMAC: the pIC50 is 4.92 in assay [1] (setting [8]); 4.60 in assay [2] (setting [8]); ≤ 4.15 in assay [3] (setting [8]); 4.79 in assay [4] (setting [8]); 4.46 in assay [5] (setting [8]).
Turning to GVEVRYIDI, the negative-log IC50 (pIC50) was 4.99 in assay [1] (setting [6]); 4.92 in assay [2] (setting [6]); ≤ 4.15 in assay [3] (setting [6]); 4.34 in assay [4] (setting [6]); 4.78 in assay [5] (setting [6]).
With HAKYMVTDKT, the pIC50 in assay [1] (setting [6]) is 4.19; in assay [2] (setting [6]) it was 5.04; in assay [3] (setting [6]), ≤ 4.15; in assay [4] (setting [6]), 4.46; in assay [5] (setting [6]), 4.29.
The like results for IAEYIAGLKI were, in that order, 4.99, 4.54, 5.23, 4.64 and 5.11.
The matching figures for IASAPQQLCT: 5.08, 4.27, 4.79, ≤ 4.15 and 4.44.

One may read the pIC50 as the IC50 on a negative log10 scale, so that one unit is a factor of ten. Higher therefore signals a low IC50.
